Experimental data as given in patent US20210230294A1 (Incyte, published 2021).
Numbering of substitutions follows the chain as printed. In names and notes the source's numbering stands.

T1: mouse CD73 (SEQ ID NO:71) (mouse, UniProt Q61503 29-551)
T1 construct: Open conformation (normal SPR running buffer); also called Murine; murine CD73
T1 sequence: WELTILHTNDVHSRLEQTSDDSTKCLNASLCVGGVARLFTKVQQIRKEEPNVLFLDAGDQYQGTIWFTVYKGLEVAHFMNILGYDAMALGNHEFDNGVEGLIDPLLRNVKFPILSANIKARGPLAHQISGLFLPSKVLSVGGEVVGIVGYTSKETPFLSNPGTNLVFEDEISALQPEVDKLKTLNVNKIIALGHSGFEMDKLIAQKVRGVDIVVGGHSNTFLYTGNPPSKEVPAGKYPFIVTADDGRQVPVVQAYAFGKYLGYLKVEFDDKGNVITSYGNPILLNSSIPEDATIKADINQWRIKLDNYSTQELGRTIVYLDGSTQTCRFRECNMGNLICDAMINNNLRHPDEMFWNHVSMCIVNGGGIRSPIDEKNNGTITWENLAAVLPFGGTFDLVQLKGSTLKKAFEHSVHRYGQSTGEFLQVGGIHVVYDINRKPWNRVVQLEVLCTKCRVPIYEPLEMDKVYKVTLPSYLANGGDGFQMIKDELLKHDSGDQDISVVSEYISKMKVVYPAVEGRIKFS

T2: recombinant human CD73 (SEQ ID NO:70) (human, UniProt P21589 27-549)
T2 construct: Soluble recombinant protein in normal SPR running buffer (open conformation), the soluble enzyme assay and HDX-MS; SPR stock bought from BPS Bioscience; also called rhuCD73; CD73 in the open conformation
T2 sequence: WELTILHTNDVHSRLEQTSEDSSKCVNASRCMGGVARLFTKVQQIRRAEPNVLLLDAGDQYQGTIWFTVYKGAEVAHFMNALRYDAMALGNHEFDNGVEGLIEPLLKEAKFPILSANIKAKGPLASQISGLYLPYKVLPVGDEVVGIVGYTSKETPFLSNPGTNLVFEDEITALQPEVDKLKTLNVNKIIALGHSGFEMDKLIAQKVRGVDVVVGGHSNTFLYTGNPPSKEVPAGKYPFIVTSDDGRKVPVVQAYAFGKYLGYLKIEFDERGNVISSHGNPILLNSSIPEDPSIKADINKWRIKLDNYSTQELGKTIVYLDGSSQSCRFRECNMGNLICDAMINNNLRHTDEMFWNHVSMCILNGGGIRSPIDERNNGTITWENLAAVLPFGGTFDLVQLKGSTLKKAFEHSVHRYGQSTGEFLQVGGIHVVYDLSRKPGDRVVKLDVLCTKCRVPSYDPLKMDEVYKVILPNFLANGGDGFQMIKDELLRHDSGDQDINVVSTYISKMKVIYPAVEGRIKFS

T3: cynomolgus CD73 (SEQ ID NO:72) (cynomolgus, UniProt P21589 27-549 (human entry))
T3 construct: Open conformation (normal SPR running buffer)
T3 chain: T2 sequence with M199T, T350A, V466I

T4: cynomolgus CD73 in the closed conformation (cynomolgus, UniProt P21589 27-549 (human entry))
T4 construct: Same protein as m2 in buffer with 100 uM APCP and 10 uM ZnCl2 (closed conformation); also called Cynomolgus, Closed
T4 chain: T2 sequence with M199T, T350A, V466I

T5: recombinant human CD73 in the closed conformation (human, UniProt P21589 27-549)
T5 construct: Kept apart from m1 because results differ between the two states; also called human CD73, Closed
T5 sequence: T2 sequence

T6: mouse CD73 in the closed conformation (mouse, UniProt Q61503 29-551)
T6 construct: Same protein as m3 in buffer with 100 uM APCP and 10 uM ZnCl2 (closed conformation); also called Murine, Closed
T6 sequence: T1 sequence

T7: human CD73 on the cell surface (MDA-MB-231 and A375 cells) (human, UniProt P21589 27-549)
T7 construct: also called cell surface CD73; cellular CD73
T7 sequence: T2 sequence

B1: HzCL25 (antibody, human IgG1, kappa, N297A, V domains shown)
VH: EVQLVQSGAEVKKPGESLKISCKGSGYTFTSYGLSWVRQMPGKGLEWMGEIYPGSGNTYYNEKFKGQVTISADKSISTAYLQWSSLKASDTAMYYCARYDYLGSSYGFDYWGAGTTVTVSS
VL: DIVMTQSPDSLAVSLGERATINCKASQDVSTAVAWYQQKPGQPPKLLIYSASYRYSGVPDRFSGSGSGTDFTLTISSLQAEDVAVYYCQQHYNTPYTFGGGTKLEIKR
notes: Humanized IgG1/kappa with N297A; also called humanized CL25
B2: CL25 (chimeric antibody, murine VH/VL with human IgG1/kappa constant regions) (antibody, V domains shown)
VH: QVQLQQSGAELARPGASVKLSCRASGYTFTSYGLSWVKQRTGQGLEWIGEIYPGSGNTYYNEKFKGKATLTADKSSSTAYMELRSLTSEDSAVYFCARYDYLGSSYGFDYWGQGTTLTVSS
VL: DIVMTQSHKFMSTSVGDRVSITCKASQDVSTAVAWYQQKPGQSPKLLIYSASYRYNGVPDRFTGSGSGTDFTFTISSVQAEDLAVYYCQQHYNTPYTFGGGTKLEIKR
notes: also called Chimeric antibody CL25
B3: 3-F03 (full-length human antibody) (antibody, human IgG1, kappa, N297A)
heavy: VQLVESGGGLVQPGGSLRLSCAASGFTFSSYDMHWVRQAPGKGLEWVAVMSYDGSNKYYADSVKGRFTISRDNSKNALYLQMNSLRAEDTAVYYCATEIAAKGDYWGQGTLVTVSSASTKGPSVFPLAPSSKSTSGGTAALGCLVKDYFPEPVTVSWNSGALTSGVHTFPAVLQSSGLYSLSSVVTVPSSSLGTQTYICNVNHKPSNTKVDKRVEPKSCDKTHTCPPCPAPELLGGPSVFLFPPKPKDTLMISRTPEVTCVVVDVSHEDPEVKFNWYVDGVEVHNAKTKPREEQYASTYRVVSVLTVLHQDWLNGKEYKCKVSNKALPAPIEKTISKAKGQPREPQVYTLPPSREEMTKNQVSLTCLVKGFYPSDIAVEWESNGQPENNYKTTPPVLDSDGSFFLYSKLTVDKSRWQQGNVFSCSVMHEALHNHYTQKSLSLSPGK
light: IQMTQSPSSLSASVGDRVTITCRASQGISNYLAWYQQKPGKAPKLLIYAASTLQSGVPSRFSGSGSGTDFTLTISSLQPEDFATYYCQQSYSTPHFGQGTRLEIKRTVAAPSVFIFPPSDEQLKSGTASVVCLLNNFYPREAKVQWKVDNALQSGNSQESVTEQDSKDSTYSLSSTLTLSKADYEKHKVYACEVTHQGLSSPVTKSFNRGEC
notes: Human IgG1/kappa with N297A; also called Antibody 3-F03; Clone 3-F03
B4: 3-F03_411 (antibody, human IgG1, kappa, N297A)
heavy: not shown
light: B3 light
B5: CL25_hu_11-4 (antibody, V domains shown)
VH: QVQLVQSGAEVKKPGASVKVSCKASGYTFTSYGLSWVRQATGQGLEWMGEIYPGSGNTYYNEKFKGRVTMTANTSISTAYMELSSLRSEDTAVYYCARYDYLGSSYGFDYWGAGTTVTVSS
VL: DIQMTQSPSSLSASVGDRVTITCKASQDVSTAVAWYQQKPGKAPKLLLYSASYRYSGVPSRFSGSGSGTDYTLTISSLQPEDFATYYCQQHYNTPYTFGGGTKLEIK
notes: Humanized CL25 antibody
B6: CL25_hu_10-4 (antibody, V domains shown)
VH: B1 VH
VL: B5 VL
notes: Humanized CL25 antibody
B7: CL25_hu_10-6 (antibody, V domains shown)
VH: B1 VH
VL: B5 VL with D1A, Q3R, L11F, V15T, L48I, Y71F, S77C, P80S
notes: Humanized CL25 antibody

How the values were obtained:
[1] = molecular target: T1, mouse CD73 (SEQ ID NO:71); test: SPR (Biacore 8K), antibody captured on anti-human Fc, CD73 as analyte, open conformation
Description: (§1) The SPR running buffer (10 mM HEPES, 150 mM NaCl, 3 mM EDTA and 0.05% v/v Surfactant P20, pH 7.4) was prepared from 10×HBS-EP Buffer (GE Healthcare). Anti-human Fc antibodies (GE Healthcare) were immobilized via amine coupling on all sixteen flow cells of an S series sensor chip CM5 (GE Healthcare). The immobilization levels were ˜9000 RU for all flow cells. […] The non-cleavable ADP analogue APCP (adenosine-5′-(α,β-methylene) diphosphate) with the presence of Zn²⁺ can be used to shift the CD73 conformational equilibrium from open towards closed. Therefore, recombinant CD73 was incubated with SPR running buffer in the presence of 100 μM APCP and 10 μM ZnCl₂ (closed SPR running buffer) to study the binding of anti-CD73 antibody to the CD73 in the closed conformation. To achieve this, the ABA injection feature in Biacore 8K was used. For open conformation, the ABA injection sequence started with 60 seconds injection of running buffer. Then, CD73 3-fold serial dilution concentration series prepared from CD73 stock (BPS Bioscience) and running buffer were injected for 180 seconds immediately followed by running buffer for 240 seconds. For closed conformation, the normal SPR running buffer was replaced by closed SPR running buffer. Surface was regenerated with 30 seconds injection of 3 M MgCl₂.

[2] = molecular target: T2, recombinant human CD73 (SEQ ID NO:70); test: as above
Description: as §1

[3] = molecular target: T3, cynomolgus CD73 (SEQ ID NO:72); test: as above
Description: as §1

[4] = molecular target: T4, cynomolgus CD73 in the closed …; test: SPR (Biacore 8K), antibody captured on anti-human Fc, CD73 as analyte, buffer with APCP and ZnCl2 (closed conformation)
Description: as §1

[5] = molecular target: T5, recombinant human CD73 in the closed …; test: as above
Description: as §1

[6] = molecular target: T6, mouse CD73 in the closed conformation; test: as above
Description: as §1

[7] = molecular target: T7, human CD73 on the cell surface …; test: flow cytometry on A375 cells, PE-conjugated secondary antibody, GMFI
[8] = molecular target: T7, human CD73 on the cell surface …; test: flow cytometry on MDA-MB-231 cells, PE-conjugated secondary antibody, GMFI
[9] = molecular target: T7, human CD73 on the cell surface …; test: as above; remark: listed apart in the source
Description: Cells were stained with the indicated concentration of antibodies for 1 hour on ice. Cells were then washed and stained goat anti-mouse secondary conjugated to PE for 30 minute on ice. Cells were then washed and analyzed by flow cytometry. The GMFI of CD73 staining is graphed (FIG. 13).

[10] = molecular target: T7, human CD73 on the cell surface …; test: as above; remark: listed apart in the source
Description: The cells were stained with the indicated concentration of antibodies for 30 minutes on ice (FIG. 2A and FIG. 2B). Next, the cells were washed and stained using goat anti-mouse secondary conjugated to phycoerythrin (PE) for 30 minutes on ice. The cells were then washed and analyzed by flow cytometry. Geometric mean fluorescence intensity (GMFI) of CD73 staining was graphed (FIG. 2A and FIG. 2B).

Binder	Kd [2] [nM]	koff [2] [s⁻¹]	kon [2] [M⁻¹ s⁻¹]	Kd [3] [nM]	also measured
B1	< 0.449	0.000449	> 1e+06	< 0.468	binding result [1]: no binding; koff [3]: 0.000468 s⁻¹; kon [3]: > 1e+06 M⁻¹ s⁻¹
B2	< 0.394	0.000394	> 1e+06	< 0.658	binding result [1]: no binding; koff [3]: 0.000658 s⁻¹; kon [3]: > 1e+06 M⁻¹ s⁻¹; Kd [4]: 0.529 nM; koff [4]: 0.000495 s⁻¹; kon [4]: 936000 M⁻¹ s⁻¹; Kd [5]: 0.381 nM; koff [5]: 0.000344 s⁻¹; kon [5]: 903000 M⁻¹ s⁻¹; binding result [6]: no binding
B3	0.37			0.734	Kd [1]: 1.66 nM; EC50 (read off the curve) [7]: ~0.1 µg/mL; EC50 (read off the curve) [8]: ~3 µg/mL
B4					EC50 (read off the curve) [9]: ~1 µg/mL
B5	2.48	0.00155	624000		EC50 (read off the curve) [10]: ~0.1 µg/mL
B6	1.2	0.00107	887000		
B7	1.75	0.00092	524000		
